Assay results as given in paper doi:10.1101/2024.07.10.602939 (bioRxiv, 2024).

B1: reduced TRC40 from Danio rerio (natural protein)
chain: not shown
B2: oxidized TRC40 from Danio rerio (natural protein)
chain: not shown
modifications: oxidized cysteines: intra- and intermolecular disulfide bonds (positions not given)
B3: oxidized Get3 from Saccharomyces cerevisiae (natural protein, UniProt Q12154 1-354, looked up)
chain: MDLTVEPNLHSLITSTTHKWIFVGGKGGVGKTTSSCSIAIQMALSQPNKQFLLISTDPAHNLSDAFGEKFGKDARKVTGMNNLSCMEIDPSAALKDMNDMAVSRANNNGSDGQGDDLGSLLQGGALADLTGSIPGIDEALSFMEVMKHIKRQEQGEGETFDTVIFDTAPTGHTLRFLQLPNTLSKLLEKFGEITNKLGPMLNSFMGAGNVDISGKLNELKANVETIRQQFTDPDLTTFVCVCISEFLSLYETERLIQELISYDMDVNSIIVNQLLFAENDQEHNCKRCQARWKMQKKYLDQIDELYEDFHVVKMPLCAGEIRGLNNLTKFSQFLNKEYNPITDGKVIYELEDKE
modifications: oxidized cysteines (positions not given)
B4: reduced Get3 from Saccharomyces cerevisiae (natural protein, UniProt Q12154 1-354, looked up)
chain: B3 chain

Target: the molecule itself
Test: SEC

Row | Protein | stoichiometry N | binding result
1 | B1 | 2 | –
2 | B2 | ≥ 4 | –
3 | B3 | – | binds
4 | B4 | – | binds
